The supplement of paper PMC10567573

B1: PRKX (parent)
chain: KLLVVDRTRRLGNMKNGANDVKHH

Variants of: B1
Assay: protein stability index of a GFP-peptide fusion (GPS, HEK-293T) (PSI 1-6); higher = more stable
Settings: c terminus: a fixed tail appended
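Note: lentivirally expressed fusions sorted by FACS into six bins by GFP to DsRed ratio, PSI derived from sequencing read proportions per bin multiplied by bin number.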

Variant	protein stability index
KLLVVDRTRRLGNMKNGANDVPHH	3.02
KLLVVDRTRRLGNMKNGANDVAHH	2.71
KLLVVDRTRRLGNMKNGANDVTHH	2.99
KLLVVDRTRRLGNMKNGANDVCHH	2.7
KLLVVDRTRRLGNMKNGANDVSHH	3.52
KLLVVDRTRRLGNMKNGANDVNHH	3.06
KLLVVDRTRRLGNMKNGANDVQHH	3.27
KLLVVDRTRRLGNMKNGANDVWHH	2.13
KLLVVDRTRRLGNMKNGANDVRHH	2.97
KLLVVDRTRRLGNMKNGANDVIHH	2.32
KLLVVDRTRRLGNMKNGANDVVHH	2.88
KLLVVDRTRRLGNMKNGANDVGHH	3.24
KLAVVDRTRRLGNMKNGANDVKHH	3.92
KLGVVDRTRRLGNMKNGANDVKHH	3.93
KLDVVDRTRRLGNMKNGANDVKHH	4.38
KLPVVDRTRRLGNMKNGANDVKHH	3.72
KLHVVDRTRRLGNMKNGANDVKHH	4
KLWVVDRTRRLGNMKNGANDVKHH	3.29
KLKVVDRTRRLGNMKNGANDVKHH	3.55
KLLVVDRTRRLGNMKNGANFVKHH	2.13
KLLVVDRTRRLGNMKNGANCVKHH	2.33
KLLVVDRTRRLGNMKNGANWVKHH	2.3
KLLVVDRTRRLGNMKNGANEVKHH	3.01
KLLVVDRTRRLGNMKNGANVVKHH	2.6

Variant	protein stability index
KLLVVDRTRRLGNMKNGANMVKHH	2.71
KYLVVDRTRRLGNMKNGANDVKHH	3.04
KCLVVDRTRRLGNMKNGANDVKHH	3.57
KWLVVDRTRRLGNMKNGANDVKHH	2.87
KELVVDRTRRLGNMKNGANDVKHH	5.03
KKLVVDRTRRLGNMKNGANDVKHH	3.99
KVLVVDRTRRLGNMKNGANDVKHH	3.52
KFLVVDRTRRLGNMKNGANDVKHH	3.22
KPLVVDRTRRLGNMKNGANDVKHH	4.29
KLLVVDRTRRLGNMKMGANDVKHH	2.26
KLLVVDRTRRLGNMKDGANDVKHH	2.85
KLLVVDRTRRLGNMKWGANDVKHH	2.26
KLLVVDRTRRLGNMKFGANDVKHH	2.42
KLLVVDRTRRLGNMKYGANDVKHH	2.38
KLLVVDRTRRLGNMKGGANDVKHH	2.84
KLLVVDRTRRLGNMKAGANDVKHH	2.54
KLLVVDRTARLGNMKNGANDVKHH	3.11
KLLVVDRTDRLGNMKNGANDVKHH	3.4
KLLVVDRTCRLGNMKNGANDVKHH	2.21
KLLVVDRTLRLGNMKNGANDVKHH	2.69
KLLVVDRTPRLGNMKNGANDVKHH	3.45
KLLVVDRTVRLGNMKNGANDVKHH	2.6
KLLVVDRTGRLGNMKNGANDVKHH	3.13
KLLVVDRTIRLGNMKNGANDVKHH	2.73

Variant	protein stability index
KLLVVDRTSRLGNMKNGANDVKHH	3.33
KLLVVDSTRRLGNMKNGANDVKHH	3.21
KLLVVDKTRRLGNMKNGANDVKHH	2.56
KLLVVDWTRRLGNMKNGANDVKHH	2.5
KLLVVDLTRRLGNMKNGANDVKHH	2.92
KLLVVDQTRRLGNMKNGANDVKHH	3.97
KLLVVDPTRRLGNMKNGANDVKHH	3.62
KLLVVDGTRRLGNMKNGANDVKHH	3.22
KLLVVDITRRLGNMKNGANDVKHH	2.13
KLLVVDRTRRLGNMVNGANDVKHH	2.72
KLLVVDRTRRLGNMRNGANDVKHH	3.6
KLLVVDRTRRLGNMENGANDVKHH	3.92
KLLVVDRTRRLGNMMNGANDVKHH	2.73
KLLVVDRTRRLGNMANGANDVKHH	3.25
KLLVVDRTRRLGNMTNGANDVKHH	2.78
KLLVVDRTRRLGNMSNGANDVKHH	3.47
KLLVVDRTRRLGNMLNGANDVKHH	2.86
KLLVVDRTRRLGNMGNGANDVKHH	3.38
KLLVVDRNRRLGNMKNGANDVKHH	2.78
KLLVVDRRRRLGNMKNGANDVKHH	2.86
KLLVVDRCRRLGNMKNGANDVKHH	2.98
KLLVVDRQRRLGNMKNGANDVKHH	3.08
KLLVVDRWRRLGNMKNGANDVKHH	2.78
KLLVVDRERRLGNMKNGANDVKHH	3.38

Variant	protein stability index
KLLVVDRIRRLGNMKNGANDVKHH	1.97
KLLVVDRFRRLGNMKNGANDVKHH	2.56
KLLVVDRKRRLGNMKNGANDVKHH	2.88
KLLYVDRTRRLGNMKNGANDVKHH	3.32
KLLWVDRTRRLGNMKNGANDVKHH	2.66
KLLDVDRTRRLGNMKNGANDVKHH	3.77
KLLPVDRTRRLGNMKNGANDVKHH	3.87
KLLFVDRTRRLGNMKNGANDVKHH	2.61
KLLVVDRTRRLGNMKNGINDVKHH	2.35
KLLVVDRTRRLGNMKNGWNDVKHH	2.2
KLLVVDRTRRLGNMKNGVNDVKHH	2.63
KLLVVDRTRRLGNMKNGKNDVKHH	3.21
KLLVVDRTRRLGNMKNGPNDVKHH	2.87
KLLVVDRTRRLGNMKNGDNDVKHH	3.85
KLLVVDRTRRLGNMKNGHNDVKHH	3.34
KLLVVDRTRTLGNMKNGANDVKHH	3.83
KLLVVDRTRILGNMKNGANDVKHH	2.94
KLLVVDRTRPLGNMKNGANDVKHH	3.43
KLLVVDRTRMLGNMKNGANDVKHH	2.85
KLLVVDRTRGLGNMKNGANDVKHH	3.35
KLLVVDRTRNLGNMKNGANDVKHH	3.4
KLLVVDRTRHLGNMKNGANDVKHH	3.04
